This passage reports apoptosis of Wehi-164 cells with TNFα (100 ng/ml) and actinomycin D, MTT assay, 20 h; peptide 50, 100 and 200 μM premixed with TNFα; 70% cell death with TNFα and AcD without the peptide and inhibition of TNFα-induced NFκB (p65) nuclear translocation in A549 cells, Western blot of nuclear extract; peptide 50, 100 and 200 μM (49%, 56% and 65%) results from paper PMC11153517.

The target in test [1] is human tumor necrosis factor (TNF)-α (human) (UniProt P01375).
For test [2] the target is unchanged. This is another data set of the same source.

UniProt P01375, sequence (P01375 whole entry): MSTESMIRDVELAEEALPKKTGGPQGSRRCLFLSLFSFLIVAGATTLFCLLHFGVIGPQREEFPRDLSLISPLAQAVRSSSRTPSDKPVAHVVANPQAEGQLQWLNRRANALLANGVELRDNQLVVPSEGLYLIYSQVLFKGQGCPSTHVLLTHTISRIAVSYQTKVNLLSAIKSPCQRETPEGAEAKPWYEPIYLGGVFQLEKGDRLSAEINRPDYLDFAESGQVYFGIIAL

B1: peptide … (peptide)
peptide: PIYLGGVFQ
In turn, B1 had an apoptosis of Wehi-164 cells with TNFα (100 ng/ml) and actinomycin D, MTT assay, 20 h; peptide 50, 100 and 200 μM premixed with TNFα; 70% cell death with TNFα and AcD without the peptide in test [1] of 26.4 % apoptosis. For the same molecule, the inhibition of TNFα-induced NFκB (p65) nuclear translocation in A549 cells, Western blot of nuclear extract; peptide 50, 100 and 200 μM (49%, 56% and 65%) in test [2] stood at 65 % inhibition.
